Assay: yeast display, Sf9 membrane polyspecificity reagent, FACS + sequencing; frameworks hold sequencing errors
Summary of the method: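 A nanobody's polyreactivity label depends on the gate it was sorted from. Yeast display cells were stained with 10% biotinylated, detergent-solubilized Sf9 membrane reagent for 1 hour at 4 °C, enriched on streptavidin microbeads and sorted by FACS. The low and high (top ~1%) gates were set on anti-HA fluorescence for expression and streptavidin fluorescence for reagent binding.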

QVQLVESGGGLVQAGGSLRLSCAASGNNIVINAMGWYRPAPGKERELVAAINWTGGNTYYADSVKGRFTISRDNAKNTVYLQMNSLKPEDSAVYYCAADRRWFVWGLGYWGQGTQVTVSS
polyreactivity (PSR sort gate): low polyreactivity

QVQLVESGGGLVQAGGSLRLSCAASGNTCTPNGMGWYRQAPGKEREFVAAITWSGGRTHYADSVKGRFTISRDNAKNTVYLQMNSLKPEDTAVYYCAARRSHFEYGTYSGYDYYWGQGTQVTVSS
polyreactivity (PSR sort gate): high polyreactivity

QVQLVESGGGLVQAGGSLRLSCAASGNTCYQYAMGWYRQAPGKERELVAAISSSGGSTYYADSVKGRFTISRDNAQNTVYLQMNSLKTEDTAVYYCATDKWYGYYYWGQGTQVTVSS
polyreactivity (PSR sort gate): low polyreactivity

QVQLVESGGGLVQAGGSLRLSCAASGNTFAENDMGWYRQAPGKERELVAAITYSGGDTYYADSVKGRFTISRDNAKNTVYLQMNSLKPEDTAVYYCAADNGSKEFDYWGQGTQVTVSS
polyreactivity (PSR sort gate): low polyreactivity

QVQLVESGGGLVQAGGSLRLSCAASGNTFAFNAMVWYRQAPGKEREFVAAISYSGVSTYYADSEKGRFTISRDNAKNTVYLQMNSLKPEDTAVYYCAARYGWYKYWYDYWGQGTQGTVSS
polyreactivity (PSR sort gate): high polyreactivity

QVQLVESGGGLVQAGGSLRLSCAASGNTFANYAMGWYRQAPGKERELVAAITSNGGSTYYADSVKGRFTISRDNAKNTVYLQMNSLKPEDTAVYYCAAPGAISTRSRYGPGYTYDYWGQVTQVTVSS
polyreactivity (PSR sort gate): low polyreactivity

QVQLVESGGGLVQAGGSLRLSCAASGNTFAPNAMGWYRQAPGKERELVAVISWSSGRTYYADSVKGRFTISRDNAKNTVYLQMNSLKPEDTAVYYCAARFGSGFNYWGQGTQVTVSS
polyreactivity (PSR sort gate): high polyreactivity

QVQLVESGGGLVQAGGSLRLSCAASGNTFDVYAMGWYRQAPGKEREFVARISGRVGSTYYADSVKGRFTISRDNAKYTVYLQMNSLKPEDTAVYYCNRRYQSRNMGYWGQGTQVTVSS
polyreactivity (PSR sort gate): high polyreactivity

QVQLVESGGGLVQAGGSLRLSCAASGNTFEYYVMGWYRQAPGKERELVAAITWSTGSTYYADSVKGRFTISRDNAKNTVYLQMNSLKPEDTAVYYCAALYYFIFGRPTRFDYWGLGTQVTVSS
polyreactivity (PSR sort gate): low polyreactivity

QVQLVESGGGLVQAGGSLRLSCAASGNTFEYYVMGWYRQAPGKERELVAAITWSTGSTYYADSVKGRFTISRDNAKNTVYLQMNSLKPEDTAVYYCNAAYVYYYPHYRYAPTAVDYDYWGQGTQVTVSS
polyreactivity (PSR sort gate): low polyreactivity

QVQLVESGGGLVQAGGSLRLSCAASGNTFFVYAMGWDRQAPGKERELVATITLNGGSTYYADSVKGRFTISRDNAKNTVYLQMNSLKPEDTAVYYCAVEPDVYPSWYYYVDYDYWGQGTQVTVSS
polyreactivity (PSR sort gate): low polyreactivity

QVQLVESGGGLVQAGGSLRLSCAASGNTFFVYAMGWYRQAPGKERELVADINWSTGSTYYADFVKGRFTLSRDNAKNTVYLQMNSLKPEDTAVYYCAAEAYYYVIFHGSWYTDDYWGQGTQVTVSS
polyreactivity (PSR sort gate): low polyreactivity

QVQLVESGGGLVQAGGSLRLSCAASGNTFGDYAMGWYRQAPGKERELVAAISRSGGSTSYADSVKGRFTISRDNAKNTVYLQMNSLKPEDTAVYYCAAYWQRFGYDYWGQGTQVTVSS
polyreactivity (PSR sort gate): low polyreactivity

QVQLVESGGGLVQAGGSLRLSCAASGNTFGIYAMGWYRQAPGKERELVAAISSGTSTNYADSVKGRFTISRDNAKNTVYLQMNSLKPEDTAVYYCNADDQYQDVREDYWGQGTQVTVSS
polyreactivity (PSR sort gate): low polyreactivity

QVQLVESGGGLVQAGGSLRLSCAASGNTFGRYAMGWSRQAPGKERELVASIRGSSVRTFYADSVKGRFTISRDNAKNTVYLQMNSLKPEDTAVYYCAKRGYAYPSSYDSWGQGTQVTVSS
polyreactivity (PSR sort gate): high polyreactivity

QVQLVESGGGLVQAGGSLRLSCAASGNTFGRYAMGWYRQAPGKERELVAAITKRGGTTYYADSVKGRFTISRDYAKNTVYLQMNSLKPEDTAVYDCAAKRSVLRTADYDYWGQGTQVTVSS
polyreactivity (PSR sort gate): high polyreactivity

QVQLVESGGGLVQAGGSLRLSCAASGNTFGYNAMGWYRQAPGKERELVAAISWRGGRTYYADSVKGRFTISRDHAKNTVYLQMNILKTEDTAVYYCAARRHSTRLRLTYDYWGQGTQVTVSW
polyreactivity (PSR sort gate): high polyreactivity

QVQLVESGGGLVQAGGSLRLSCAASGNTFGYNAMGWYRQAPGKERELVASITWSGGSTYYADSVKGRFTISRDNAKNTVYLQMNSLKPEDTAVYYCNADVRYGRDHWGQGTQVTVSS
polyreactivity (PSR sort gate): low polyreactivity

QVQLVESGGGLVQAGGSLRLSCAASGNTFIPNAMGWSRQAPGKETELVAAIRASGGSTYYADSVKGRFTISRDNAKNTVYLQMNSLKPEDTAVYYCNADIWYKTYDYWGQGTQVTVSS
polyreactivity (PSR sort gate): low polyreactivity

QVQLVESGGGLVQAGGSLRLSCAASGNTFIRNVMGWYRQAPGKERELVAGIRTGGSTFYADSVKGRFTISRDNAKNTVYLQMNSLKPEDTAVYYCNADVGDEGNLPYVIRPMDYWGQGTQVTVSS
polyreactivity (PSR sort gate): low polyreactivity

QVQLVESGGGLVQAGGSLRLSCAASGNTFKRYAMGRYRQAPGKERELVAAITWRGARTYYADSVKGRLTISRDNAKNTFYLQMNSLKPEDTAVYYCAADGYSGSGPYDYWGQGTQVTVSS
polyreactivity (PSR sort gate): high polyreactivity

QVQLVESGGGLVQAGGSLRLSCAASGNTFLAYVMGWYRQAPGKEREFVAAISRRDGRTYYADSVKGRFTISRDNAKNTVYLQMNSLKPEDTAVYYCNAQRHFWHLYAPSSFDYWGQGTQVTVSS
polyreactivity (PSR sort gate): low polyreactivity

QVQLVESGGGLVQAGGSLRLSCAASGNTFNIYAMGWYRQAPGKETEFVAAITVSDTSTYYADSVKGRFTISRDSAKNTVYLQMKSLKPEDTAVYYCNADWWGTYDYYYWGQGTHVTVSS
polyreactivity (PSR sort gate): low polyreactivity

QVQLVESGGGLVQAGGSLRLSCAASGNTFNNNAMGWYRQAPGKERELVAITGDGGSTYYADSVKGRFTISRDNAKNTVYLQMNSLKPEDTAVYYCAADYLYRYQTMGYWGQGTQVTVSS
polyreactivity (PSR sort gate): low polyreactivity

QVQLVESGGGLVQAGGSLRLSCAASGNTFPLNAMGWYRQAPGKERELVAAISSSGRTYYADSVKGRFTISRDNAKNTVYLQMNSLKPEDTAVFYCNAKWRERGVRMDYWGQGTQVTVSS
polyreactivity (PSR sort gate): high polyreactivity

QVQLVESGGGLVQAGGSLRLSCAASGNTFPVSYTMGWYRQAPGKEREFVAVITSGGGRTYADSVKGRFTISRDTAKNTVYLQMNSLKPEDTAVYYCAVRPRVSSWKFRSRRYGYWGQGTRVTVSS
polyreactivity (PSR sort gate): high polyreactivity

QVQLVESGGGLVQAGGSLRLSCAASGNTFQRYTMGWYRQAPGKERELVAAINSSGGSTFYADSVKGRFTISRDNAKNTVYLQMNSLKPEDTAVYYCAASWHTPTVYDEYYYWGQGTQVTVSS
polyreactivity (PSR sort gate): low polyreactivity

QVQLVESGGGLVQAGGSLRLSCAASGNTFQYYAMGWYRQAPGKEREFVAAISRRGGSTYYADSVKGRFTISRDNAKNTVYLQMNSLKPEDTAVYYCNKVIVLSQSSYSFHYAYDYWGQGTQVTVSS
polyreactivity (PSR sort gate): high polyreactivity

QVQLVESGGGLVQAGGSLRLSCAASGNTFRDYAMGWYRQAPGKERELVAAITSSGARTYYADSVKGRFTISRDNAKNTVYLQMISLKPEDTAVYYCAADWSGYYTYDYWGQGTQVTVSS
polyreactivity (PSR sort gate): low polyreactivity

QVQLVESGGGLVQAGGSLRLSCAASGNTFRHNTMGWYRQAPGKERELVSTNYADSVKGRFTISRDNAKNTVYLQMNSLKPEDTAVYYCNADGTFGYEYWGHGTQVTVSS
polyreactivity (PSR sort gate): low polyreactivity

QVQLVESGGGLVQAGGSLRLSCAASGNTFRINAMGWYRQAPGKERELVAAISRSTGRTYYADSVKGRFTISRDNAKNTVYLQMNSLKPEDTAVYYCAAGYTGQEHDYWGLGTQVTVSS
polyreactivity (PSR sort gate): high polyreactivity

QVQLVESGGGLVQAGGSLRLSCAASGNTFRPYAMGWYRQAPGKERELVARIRYGGGSTYYADSVKGRFTISRDNAKNTVYLQMNSLKPEDTAVYYCAVYRDQYRNFYYWGLGTQVTVSS
polyreactivity (PSR sort gate): high polyreactivity

QVQLVESGGGLVQAGGSLRLSCAASGNTFRRYAMGWYRQAPGKERELVAAITGGTRTYYADSVKGRFTISRDNAKNTVYLQMISLKPEDTAVYYCAARLTSRSYRYDYWGQGTQVTVSS
polyreactivity (PSR sort gate): high polyreactivity

QVQLVESGGGLVQAGGSLRLSCAASGNTFRWYAMGWYRQAPGKEREFVADITVRGGSTYYADSVKGRFTISRDNAKNTVYLQMNSLKPEDTAVYYCASYHYYTYDYWGQGTQVTVSS
polyreactivity (PSR sort gate): low polyreactivity

QVQLVESGGGLVQAGGSLRLSCAASGNTFRWYAMGWYRQAPGKERELVAAITWSGGSTYYADSVKGRFTISRDNAKNPVYLQMNSLKPEDTAVYYCAARRWAGEYDYWGQGTQVTVSS
polyreactivity (PSR sort gate): low polyreactivity

QVQLVESGGGLVQAGGSLRLSCAASGNTFSQYAMGWSRQAPGKERELVATISKSSGSTSYADSVKGRFTISRDNAKNTVYLQMNSLKPEDTAVYYCNADSSDVYHHLGVLFFSTWYDYWGQGTQVTVSS
polyreactivity (PSR sort gate): low polyreactivity

QVQLVESGGGLVQAGGSLRLSCAASGNTFSVYTMGWYRQAPGKERELVAAITRGGDSTYYADSVKGRFTISRDNAKNTVYLQMNSLKPEDTAVYYCAADHDGPYAGYDSWGQGTQVTVSS
polyreactivity (PSR sort gate): low polyreactivity

QVQLVESGGGLVQAGGSLRLSCAASGNTFSYNAMGWYRQAPGKEKELVAGITWSGGSTYYADSVKGRFTISRDNAKNTVYLQMNSLKPEDTAVYYCAKGYGSGVVRSRWSKYGYWGQGTQVTVSS
polyreactivity (PSR sort gate): high polyreactivity

QVQLVESGGGLVQAGGSLRLSCAASGNTFTAYVMGWYRQAPGKERELVAGISGRGSSTYYADSVKGRFTISRDNAKNTVYLQMNSLKQEDTAVYYCAAVRTLRTWVYGRYDYWGQGTQVTVSS
polyreactivity (PSR sort gate): high polyreactivity

QVQLVESGGGLVQAGGSLRLSCAASGNTFTKYAMGWYIQAPGKERELVAGITRGGSTNYADSVKGRFTISRDNAKNTVYLQMNSLKPEDTAVYYCNARPVYGSRFYSAVRMEYWGQGTPVTVSS
polyreactivity (PSR sort gate): low polyreactivity

QVQLVESGGGLVQAGGSLRLSCAASGNTFTRNAMGWYRQAPGKERELVAAISYSGGSTYYADSVKGRFTISRDNAKNTVYLQMNSLKPEDTAVYYCATKYYDRFSPYRGDYWGQGTQVTVSS
polyreactivity (PSR sort gate): low polyreactivity

QVQLVESGGGLVQAGGSLRLSCAASGNTFVFYAMGWYRQAPGKERELVAAIDTGGTTNYADSVKGRFTISRDNAKNTVYLQMNSLKPEDTAVYYCAKRRLYWSGQGWVRTYGYWGQGTQVTVSS
polyreactivity (PSR sort gate): high polyreactivity

QVQLVESGGGLVQAGGSLRLSCAASGNTFVFYTMGWSRQAPGKERELVAAITSSGVRTSYADSVKGRFSISRDNAKNTVYLQMNSLKPEDTAVYYCAASLRASPSFGYWGQGTQVTVSS
polyreactivity (PSR sort gate): high polyreactivity
